{"source": "patent US20110243962A1", "about": "(GENEURO, published 2011)", "key": {"[1]": {"biological_target": "T1, MSRV complete ENV protein (ENV-T), recombinant from E. coli (MSRV (Multiple Sclerosis associated …))", "T1 chain": "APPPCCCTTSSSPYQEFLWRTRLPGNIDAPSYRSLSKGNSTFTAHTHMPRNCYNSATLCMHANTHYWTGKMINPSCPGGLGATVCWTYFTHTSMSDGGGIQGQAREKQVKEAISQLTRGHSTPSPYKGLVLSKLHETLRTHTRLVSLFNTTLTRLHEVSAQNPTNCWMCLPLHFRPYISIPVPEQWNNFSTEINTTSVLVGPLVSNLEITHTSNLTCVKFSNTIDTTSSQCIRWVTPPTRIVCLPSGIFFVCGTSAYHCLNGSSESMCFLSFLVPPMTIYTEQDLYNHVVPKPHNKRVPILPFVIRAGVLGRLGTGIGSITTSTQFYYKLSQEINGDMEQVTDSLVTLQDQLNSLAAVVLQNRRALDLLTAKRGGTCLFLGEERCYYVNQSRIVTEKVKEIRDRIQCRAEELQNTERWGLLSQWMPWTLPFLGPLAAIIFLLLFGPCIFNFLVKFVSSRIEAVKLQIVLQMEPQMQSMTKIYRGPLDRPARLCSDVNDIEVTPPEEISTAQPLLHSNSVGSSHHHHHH", "assay": "cell-based or functional assay"}, "[2]": {"biological_target": "T2, MSRV ENV surface domain fragment (ENV-SU), recombinant from E. coli (MSRV (Multiple Sclerosis associated …))", "T2 chain": "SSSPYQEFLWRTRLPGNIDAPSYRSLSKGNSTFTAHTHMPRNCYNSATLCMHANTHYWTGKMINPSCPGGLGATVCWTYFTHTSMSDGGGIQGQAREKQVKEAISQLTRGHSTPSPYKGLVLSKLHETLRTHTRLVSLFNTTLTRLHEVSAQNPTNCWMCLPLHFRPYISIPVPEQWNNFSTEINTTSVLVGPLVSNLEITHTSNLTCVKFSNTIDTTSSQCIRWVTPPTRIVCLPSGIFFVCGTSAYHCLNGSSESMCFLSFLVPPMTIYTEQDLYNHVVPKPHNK", "assay": "cell-based or functional assay"}}}
{"binder": "Humanized GNb AC1 IgG4 antibody (stabilized, H2 S241P heavy chain and VK3 light chain) (antibody, V domains shown) VH: QVQLVQSGAEVKKPGSSVKVSCKASGYTFTDYEMHWVRQAPGQGLEWIGAVAPETGGTAYNQKFKGRATITADKSTSTAYMELSSLRSEDTAVYYCTSTVVPFAYWGQGTLVTVSS VL: QIQLTQSPSSLSASVGDRVTITCSASSSVSYMYWYQQKPGKAPKAWIYRTSNLASGVPSRFSGSGSGTDYTLTISSLQPEDFATYYCQQYQSLPLTFGGGTKVEIKR", "values": [{"measurement": "IL-6 at 24 h in PBMC culture with ENV-T 0.1 ug/ml, MAb ratio 10/1 (no antibody: 4363)", "setting": "[1]", "result": 2910}, {"measurement": "IFN-g at 72 h in PBMC culture with ENV-SU 0.5 ug/ml, MAb ratio 10/1 (no antibody: 336)", "setting": "[2]", "result": 46}]}
